The chains are these.
B1: LYSMD4 (parent)
chain: LLQRELAQEDSLNKLALQYGCKVA
B2: MLL5 (parent)
chain: TYLCERCQPRNLDKERAVLLQRRK

The results in this text go back to the supplement of paper PMC10567573.
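Further: lentivirally expressed fusions sorted by FACS into six bins by GFP to DsRed ratio, PSI derived from sequencing read proportions per bin multiplied by bin number.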

In the first data set the parent is B1. The experiment in a line: protein stability index of a GFP-peptide fusion (GPS, HEK-293T) (PSI 1-6); higher = more stable. The following applies: c terminus: a fixed tail appended.
In the case of LLQRELAQEDSLNKLALQYGCKVT [A24T], the protein stability index was determined as 2.19.

As for LLQRELAQEDSLNKLALQYGCKVY [A24Y], the protein stability index is 2.75.

Turning to LLQRELAQEDSLNKLALQYGCKVV [A24V], the protein stability index was determined as 3.02.

With LLQRELAQEDSLNKLALQYGCKVP [A24P], the protein stability index worked out at 2.64.

For LLQRELAQEDSLNKLALQYGCKVW [A24W], the protein stability index was 4.48.

For LLQRELAQEDSLNKLALQYGCKVR [A24R], the protein stability index was found to be 1.95.

Variants of B2 are the subject of the next data set. Described as above. As to conditions: c terminus: a fixed tail appended.
On to TYLCERCQPRELDKERAVLLQRRK [N11E], for which the protein stability index was 1.52.

With TYLCERCQPRHLDKERAVLLQRRK [N11H], the protein stability index amounted to 2.82.

As to TYLCERCQPRDLDKERAVLLQRRK [N11D], the protein stability index was 2.02.

In the case of TYLCERCQPRILDKERAVLLQRRK [N11I], the protein stability index was determined as 1.68.

As for TYLCERCQPRFLDKERAVLLQRRK [N11F], the protein stability index came to 1.9.

For TYLCERCQPRCLDKERAVLLQRRK [N11C], the protein stability index was 2.11.

As to TYLCERCQPRALDKERAVLLQRRK [N11A], the protein stability index came to 2.05.

As for TYLCERCQPRGLDKERAVLLQRRK [N11G], the protein stability index amounted to 2.42.

Consider TYLCEDCQPRNLDKERAVLLQRRK [R6D], for which the protein stability index worked out at 2.93.

Turning to TYLCEWCQPRNLDKERAVLLQRRK [R6W], the protein stability index was 1.53.

On to TYLCEVCQPRNLDKERAVLLQRRK [R6V], for which the protein stability index came to 2.42.

With TYLCEYCQPRNLDKERAVLLQRRK [R6Y], the protein stability index amounted to 2.83.

Regarding TYLCELCQPRNLDKERAVLLQRRK [R6L], the protein stability index is 1.49.

In the case of TYLCEPCQPRNLDKERAVLLQRRK [R6P], the protein stability index stood at 3.84.

Turning to TYLCEICQPRNLDKERAVLLQRRK [R6I], the protein stability index stood at 2.07.

As for TYLCEMCQPRNLDKERAVLLQRRK [R6M], the protein stability index was found to be 1.81.

As for TYLCECCQPRNLDKERAVLLQRRK [R6C], the protein stability index stood at 2.2.

On to TYLCEKCQPRNLDKERAVLLQRRK [R6K], for which the protein stability index stood at 1.59.

For the variant TYLCEQCQPRNLDKERAVLLQRRK [R6Q], the protein stability index was found to be 2.53.

Take TYLCENCQPRNLDKERAVLLQRRK [R6N]: the protein stability index stood at 2.81.

Take TYLCEHCQPRNLDKERAVLLQRRK [R6H]: the protein stability index turned out to be 1.87.

As to TYLCEECQPRNLDKERAVLLQRRK [R6E], the protein stability index amounted to 3.87.

For TYLCEGCQPRNLDKERAVLLQRRK [R6G], the protein stability index is 4.25.

Take TYLCESCQPRNLDKERAVLLQRRK [R6S]: the protein stability index came to 2.83.

With TYLCETCQPRNLDKERAVLLQRRK [R6T], the protein stability index amounted to 1.92.

As to TYLCEFCQPRNLDKERAVLLQRRK [R6F], the protein stability index was determined as 1.79.

Consider HYLCERCQPRNLDKERAVLLQRRK [T1H], for which the protein stability index turned out to be 2.18.

For IYLCERCQPRNLDKERAVLLQRRK [T1I], the protein stability index came to 1.93.

Turning to YYLCERCQPRNLDKERAVLLQRRK [T1Y], the protein stability index was found to be 2.14.

In the case of KYLCERCQPRNLDKERAVLLQRRK [T1K], the protein stability index was 2.48.

NYLCERCQPRNLDKERAVLLQRRK [T1N]: the protein stability index came out at 2.13.

In the case of GYLCERCQPRNLDKERAVLLQRRK [T1G], the protein stability index came to 1.82.

For FYLCERCQPRNLDKERAVLLQRRK [T1F], the protein stability index amounted to 1.27.

For VYLCERCQPRNLDKERAVLLQRRK [T1V], the protein stability index came out at 1.5.

For the variant EYLCERCQPRNLDKERAVLLQRRK [T1E], the protein stability index worked out at 1.47.

As to QYLCERCQPRNLDKERAVLLQRRK [T1Q], the protein stability index amounted to 2.14.

As to RYLCERCQPRNLDKERAVLLQRRK [T1R], the protein stability index worked out at 2.76.

For AYLCERCQPRNLDKERAVLLQRRK [T1A], the protein stability index amounted to 2.29.

With WYLCERCQPRNLDKERAVLLQRRK [T1W], the protein stability index turned out to be 3.05.

Take SYLCERCQPRNLDKERAVLLQRRK [T1S]: the protein stability index amounted to 1.87.

Regarding DYLCERCQPRNLDKERAVLLQRRK [T1D], the protein stability index was 2.73.

For the variant MYLCERCQPRNLDKERAVLLQRRK [T1M], the protein stability index turned out to be 1.39.

As to TYLCERCQPMNLDKERAVLLQRRK [R10M], the protein stability index was found to be 2.25.

For the variant TYLCERCQPKNLDKERAVLLQRRK [R10K], the protein stability index amounted to 1.74.

Regarding TYLCERCQPPNLDKERAVLLQRRK [R10P], the protein stability index came out at 2.67.

In the case of TYLCERCQPQNLDKERAVLLQRRK [R10Q], the protein stability index stood at 2.48.

Take TYLCERCQPWNLDKERAVLLQRRK [R10W]: the protein stability index is 1.66.

Turning to TYLCERCQPGNLDKERAVLLQRRK [R10G], the protein stability index was found to be 3.56.

On to TYLCERCQPCNLDKERAVLLQRRK [R10C], for which the protein stability index is 2.54.

As to TYLCERCQPENLDKERAVLLQRRK [R10E], the protein stability index was 1.99.

Take TYLCERCQPINLDKERAVLLQRRK [R10I]: the protein stability index came to 2.25.

TYLCERCQPDNLDKERAVLLQRRK [R10D]: the protein stability index stood at 2.25.

For TYLCERCQPFNLDKERAVLLQRRK [R10F], the protein stability index is 2.28.

As to TYLCERCQPVNLDKERAVLLQRRK [R10V], the protein stability index is 2.17.

As for TYLCERCQPTNLDKERAVLLQRRK [R10T], the protein stability index amounted to 2.29.

For the variant TYLCERCQPANLDKERAVLLQRRK [R10A], the protein stability index amounted to 2.28.

Consider TYLCERCQPHNLDKERAVLLQRRK [R10H], for which the protein stability index was 1.72.

Consider TYLCERCQPNNLDKERAVLLQRRK [R10N], for which the protein stability index is 2.84.

TYLCERCQPLNLDKERAVLLQRRK [R10L]: the protein stability index turned out to be 1.83.

TYLCERCQPYNLDKERAVLLQRRK [R10Y]: the protein stability index was found to be 2.04.

On to TYLCERCQPSNLDKERAVLLQRRK [R10S], for which the protein stability index came to 2.44.

As to TYLCERKQPRNLDKERAVLLQRRK [C7K], the protein stability index turned out to be 3.34.

Consider TYLCERDQPRNLDKERAVLLQRRK [C7D], for which the protein stability index stood at 4.49.

For TYLCERSQPRNLDKERAVLLQRRK [C7S], the protein stability index was found to be 4.63.

Take TYLCERLQPRNLDKERAVLLQRRK [C7L]: the protein stability index is 3.12.

In the case of TYLCERFQPRNLDKERAVLLQRRK [C7F], the protein stability index amounted to 3.27.

For TYLCERNQPRNLDKERAVLLQRRK [C7N], the protein stability index was 3.93.

For TYLCERPQPRNLDKERAVLLQRRK [C7P], the protein stability index is 3.94.

Consider TYLCERGQPRNLDKERAVLLQRRK [C7G], for which the protein stability index came to 3.59.

Take TYLCERVQPRNLDKERAVLLQRRK [C7V]: the protein stability index worked out at 3.32.

In the case of TYLCERWQPRNLDKERAVLLQRRK [C7W], the protein stability index was 3.6.

For the variant TYLCERRQPRNLDKERAVLLQRRK [C7R], the protein stability index was found to be 4.03.

For the variant TYLCERQQPRNLDKERAVLLQRRK [C7Q], the protein stability index was 3.65.

Consider TYLCERTQPRNLDKERAVLLQRRK [C7T], for which the protein stability index came to 4.37.

TYLCERHQPRNLDKERAVLLQRRK [C7H]: the protein stability index was 3.12.

As to TYLCERIQPRNLDKERAVLLQRRK [C7I], the protein stability index worked out at 3.76.

With TYLCERMQPRNLDKERAVLLQRRK [C7M], the protein stability index was 3.2.

Regarding TYLCERAQPRNLDKERAVLLQRRK [C7A], the protein stability index turned out to be 4.59.

Take TYLCEREQPRNLDKERAVLLQRRK [C7E]: the protein stability index worked out at 4.89.

On to TTLCERCQPRNLDKERAVLLQRRK [Y2T], for which the protein stability index was 2.41.

In the case of TQLCERCQPRNLDKERAVLLQRRK [Y2Q], the protein stability index worked out at 3.53.

As for TKLCERCQPRNLDKERAVLLQRRK [Y2K], the protein stability index came to 3.44.

In the case of TILCERCQPRNLDKERAVLLQRRK [Y2I], the protein stability index was 2.77.

On to TCLCERCQPRNLDKERAVLLQRRK [Y2C], for which the protein stability index is 1.76.

On to TWLCERCQPRNLDKERAVLLQRRK [Y2W], for which the protein stability index worked out at 2.76.

TPLCERCQPRNLDKERAVLLQRRK [Y2P]: the protein stability index came to 3.19.

As to TDLCERCQPRNLDKERAVLLQRRK [Y2D], the protein stability index was 2.78.

TNLCERCQPRNLDKERAVLLQRRK [Y2N]: the protein stability index was 2.43.
